Target: FITC-labeled BMF peptide (FITC-…)
Experiment: fluorescence polarisation

Sequence of 6xHis-tagged LC8 (DYNLL2) (Q96FJ2 whole entry): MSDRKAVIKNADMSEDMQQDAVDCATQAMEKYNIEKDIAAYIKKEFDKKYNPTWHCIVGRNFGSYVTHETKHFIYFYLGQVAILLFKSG

In the case of “6xHis-tagged LC8 (DYNLL2) (from UniProt Q96FJ2 1-89) (natural protein)”, the LC8 concentration at 80% saturation of the labeled BMF peptide is reported as 12 µM.

— doi:10.1101/2023.09.15.557927
